Test results reported in a protein production outcome set (Wang et al. 2014).

Assay: label from the status in PepcDB records

MEGNFIVARFDKNTSFFEDLEEVCNKHGVKAGTVVWAIGMLKDFEVGYWNGQDYEKETFRERLEIVSLHGTIAENDPKYHIHASGARSNHMIVGGHLFSATVDPLIEIQIMKIEGPKMTRVQDPSDKLFKLKIE
protein production: failed

MGGKWSTPSFDEAARLVLGRGFHHVSLCAAGYFSDGNETIHRESVLSAIDPSVRVETIPCLNDSPHLIACLAGRVVAASRQILAFSGDLKG
protein production: failed

MLFEASLVAVWAFFCGIDKYDVALNIHRPLITGPVVGLIMGDMQIGLIAGATLELAWLGLVPNAGAQPPDVTMGTIAAVAFAVMTGQSPEVAMGVGMPIAVLMQMLVIGFFAMTSFTMGKADKYAEEANTNGIDFLLLSTITMRSMLYAVIAFLTVYFGEHGAAWIDANAPKTLLEGLGIGAKMVPAIGFAMLLKIMWSKEVAGVFFIGFVMTTYLQLPIMAVAILGASAAALYYFFSGNGNKNSNQEFEDFEDGI
protein production: failed

MSEHPKKVVLLDLDGTLTKSDPGIIGCVVKAFEEMGYPVPDDAELHRFIGPAISESMQRNGIPDDKLDEGVRIYRKYYADEAVFDDPNNPGQKVPGRLNNTIYQGIPEQLAKLRADGYYLAIASCKPQYQCIPICEHFHLDTMVDGIYGASEDNSRLDKDQVIRWAFQHIDFDENAGDKALMVGDRWTDADGAKACGLDCLGCGWGYAEPGELKAHGAYRILDSVDELAQAVEEYFA
protein production: not failed

MSLYKQLLIAICLFVLIIFSGSFFVSLENSREQYNNQLHSHAQDAATALGLSLTPNIDDPAMVELMVSSIFDSGYFSSIRVRDLKTGNVTLERTASPDIPDVPLWFVQLVDLQPGAGEAIVMRGWEQAAKVEVVSHPMFAVTRLWRSSTATFLWLLGCGTLGVLIGALFLRRQLRPLDYIVDQSLAITRREFLSQPDLPNTPEFRRVAQAMNLMVSKLKTLFEEEAERSERLRQEAYQDPQTGLNNRRAFDMQFNDKLADEETAPGFLIMIRVQDLAGMNQRLGGQRTDALLASVGHILRKTQKQHTNTESLLARIRGGEFALFCPGLVDKEVYALIGELTRNIETLHLTGETDVSPVAQFGMVPFRPGDTAQSLFIQGDQALTRAESDTDTTAPYEIPLAGAEQVETDRHMWFNLLDPILEQERLQLFLQPVVACDDPSQVLHHKVLARIQDEQGNSIAAGRFLPWIQRFGWDTRLDQTMLREVLDYLRQHDGNLALSLSGTTVLNLHLLADLLAPLKHQPEVARRLILELDENQLPDSAQLETLIKLLNEHGCALGLQHFGGRFNMIGNLSQWGLAYLKVDGSYIRNIDQEGDKQMFIEALYRATNSIALPLIAERVETAGELKVLQEMGLQGAMGRLLGEPMPAVRA
protein production: failed

AIARTDSSKMTDVESGVANFASSARAGRRNALPDIQSSAATDGTSDLPLKLEALSVKEDAKEKDEKTTQDQLEKPQNEEK
protein production: failed

MTNVLYQHGTLGTLMAGLLEGTATINELLEHGNLGIATLTGSDGEVIFLDGKAYHANEHKEFIELKGDEKVPYASITNFKASKTFPLQQLSQDDVFAQIKNEMLSENLFSAVKIYGTFKHMHVRMMPAQQPPYTRLIDSARRQPEEKRQDIRGAIVGFFTPELFHGVGSAGFHIHFADDERAYGGHVLDFEVDDVVVEIQNFETFQQHFPVNNETFVKAKIDYKDVAEEIREAE
protein production: not failed

MKTTYNRWWKKKVWFGRKDMSYKVIVDSCGEFTPEMKADGGFEHVALGIQIEDTQWTDDDSLKQEELLLKIAESTSCAKTSCPSPERYMESYHCDAERIYVVTLSAELSGSYNSAVLGKNLYEEEYGEKQIHVFNSRSASVGETLIALKVQQCEKAGMTFEEVVESVECYIEEQHTYFVLENLDTLRKNGRLTGIKSLVAGALNIKPIMGSTPQGTICQKEKARGMKKALVKMADCVAADVVNAGDKILAIAHCNCEERAKEVQRLLKERFAVKSSFIVDTSGISTVYANDGGIIVVV
protein production: not failed

DSLKAEVNTLFARFDEQPLAAASIAQVHTAALFDGREVIVKVTRPNIRTQILQDFEIISWLGQSLESRLEAARALHLSEIIQDYRQIILNELDLTLEADNTRRMRHYFTGSSMMYVPEVY
protein production: not failed

MEEEMKKKVSRGELGGEAQNCPRCESPNTKFCYYNNYSLSQPRYFCKSCRRYWTKGGTLRNVPVGGGCRRNKRSSSSAFSKNNNNKSINFHTDPLQNPLITGMPPSSFGYDHSIDLNLAFATLQKHHLSSQATTPSFGFGGDLSIYGNSTNDVGIFGGQNGTYNNSLCYGFMSGNGNNNQNEIKMASTLGMSLEGNERKQENVNNNNNNSENPSKVFWGFPWQMTGDSAGVVPEIDPGRESWNGMVSSWNNGLLNTPLV
protein production: not failed

MSDAQKFQLGTIGALSLSVVSSVSIVICNKALISTLGFTFATTLTSWHLLVTFCSLHVALWMKFFEHKPFDPRAVLGFGVLNVNFSTFLVIGKTSPVTYQVLGHLKTCLVLAFGYLLLKDAFSWRNILGILVAVIGMVLYSYYCTLETQQKATETSTQLPQMDENEKDPLVSAENGSGLISDNGVQKQDPVWNSNKDFQA
protein production: failed

MDKKENTVVLFPQLSERYIDEGFLALKERKFEDALRCFEILRQYNAETEQTELASVICLLELKRMEEAKDKCEQLLKTGVVLFGDILETYVTILVQTNDYEGVIETVEKVLQTKDIMPDQKEKLAQLALFAEGMLNEGDASLVDSNFELDEFTNEIFGENFGQKLRAIQRLSLKDLDLALPVLKKFLIEEEQHPYLKTSILYKMIESQVEEEIEVEKFGNTIKVIPAFTGHNEEQSNNIIHKLSSRLEQNYPDIFEAMVTYWKELQISVFPFALLMDKEEIWSAVLERIGRKRFGLAIDEEELMAAYNIELEEFHIAYQWLLRVEREGYLPV
protein production: failed

MLTLAPCGRGPCAARGEGASRPVLTKSHSSSRLKPTSAGQHPGAGRGPLAWGMTEPVPVAPFPSVFGGVQQLRPDVFRVRLPLVNIFLMGVPGGDWVLVDTGMPGTAGLIRQAAAQVYGARAPQAIVLTHGHFDHIGALHALLAEWNVPVYAHPDELPHLTGEVPYRFPDPTVGGLMSLTSPLFLPGPYDFRPQVRTLPEDGTVPELPGWRWVHTPGHTEGHVSLWREADRLLIAGDAVVTTPQETVPGALASTPTVLRRPPAYYTPNWNATRDSVRTLAALRPALVATGHGHPLTDDSLGDALTRLADDFDHDPNGRPAHGWYLGHPAPMQKPRPGEPDPMRTLFLGALGAAGALWLLGRRRR
protein production: failed

MADATRIPDSVTLPELTLRGVLLGALITVIFTASNVFLGLKVGLTFSSAIPAAVISMSVLRMFRDANILENNMVQTQASAAGTLSAIIFILPALVMMGHWQGFPFWQTLAICGAGGMLGVMFTIPLRHIMVVQSDLPYPEGVAAAEILRVGSAEAPDTAPGRRGASGMGDILAGGGVAALVSLATGGLRVLGDSFSWWGQLGASVFRLPMGFSLALLGAGYLIGIVAGVAMLVGLLIAWLVAVPVLTATTPMPDGQSISAFANSLWASQVRFIGAGVIGVGAIWTLATLFMPMVRGVRTSFAAFGRSGEAAYGSAPRTERDLPSRWISLITLALVAVLVGVFAAFLQPAVLSPGARWGLVAYAVVFAFVFGFLVAAACGYMAGLIGSSTSPISGVGIVAIVLVSLLMLAIQRGDGLLATPQGLQMGIALAIFTTSAVVAVASISNDNLQDLKTGWLVGATPWRQQVALLIGCVVGAAVISPVLELLYNAYGFGDALPRPGMDPSQALAAPQATLMLAIAQGIFTHQLNWTMILIGMGVGVALIVIDQVLRRTCRVARLPVLAVGIGIYLPPSASAPIVVGAVLAWLLEGALRRRAAAAGQDYERYAEGPNRRGVLVASGLIVGESLVGVLLAAVIGATGDEAPLAVVGAGFGPTAEWLGFVVFAAVAVWIYRRVVRTRPEQA
protein production: failed

MKNEVFFGEGMKVVAAAYPDLYDIIVKLNDTVFTGKTLDYKTQKLIAIGIVASRCDEVAIEKQMKSAMKELGITKEEIADVLRVVLLTSGMPAFTKAMKILEKL
protein production: not failed

MGHHHHHHSHMNSAEQTVTWLITLGVLESPKKTISDPEGFLQASLKDGVVLCRLLERLLPGTIEKVYPEPRSESECLSNIREFLRGCGASLRLELLFPPSQPPQHLVTTILLSASTFDANDLYQGQNFNKVLSSLVTLNKVTADIGLGSDSVCARPSSHRIKSFDSLGSQSLHTR
protein production: failed

MAKSPKFMVFHLRELIYTLVFILLGIILIISLVIMFYNRGNKQEKEENTGVYEPGVYTSCVTLNGNPMDVKVTLDDNHINSITVDNVSNTITTMYPLVEPAFNDIANQIVTNQSLENIKFDDNSKYTYTILYNAILDTIEKGKVGE
protein production: failed

MGITDGVVVDLGGGTTGISILEKGKVIFVADEPTGGTHMTLVLAGSYGIDFETAEDIKTDKKKEKEVFVQITPVLQKMAAIVKKYIKDYKVKDVFLVGGACSFDGSESIFERELGLNIYKLEHHHHHH
protein production: failed

MTDPLQRPRRKDPLRRTTLGHVPPRLRSRAAMEMATHAAQGRFVLQTCESCDRATYPPRDRCPNCWGELVWREQDAGGQVAAETTIRHSTDTYFRNHMPWRIGTVRLDAGPTAIVHLHGEAGVGDRVNMVLKLDRGGNPALFAMPRGDVPNMQDDPQFRSFTADPKHRRVLVTDGRTDTGQAIARALLDAGAAKVFVGDCAPLMRFAGKQQLAALDGAELVPLDVTDTHSVGNLAAQLGGRIDIVINTAGQVREGGVAFGAKLSDLQAGLDTGVVGLMRLAQAFGPALGARSDDGVNSAAAFLDVVPVSGLSGQSGYSGTAASAAARLSLLSGFRGEMQKAGIRVMSVLTGPVDDAWHQRLPQPKTAPSHLARTVVAALRDGQEISCAGDVAKDLFARWRADPLLTMREENR
protein production: failed

MLWHVFYGRGRMLLSNHAQGRNFRPIFVMSDPISWTAEATERLKEIPFFVRPAARKKIENFAREAGITEITETVYEQAKQKFN
protein production: failed

MYEIKGHHHISMVTKNANENNHFYKNVLGLRRVKMTVNQDDPSMYHLFYGDKTGSPGTELSFFEIPLVGRTYRGTNAITRIGLLVPSEDSLHYWKERFEKFDVKHSEMTTYANRPALQFEDAEGLRLVLLVSNGEKVEHWETWEKSEVPAKHQIQGMGSVELTVRRLDKMASTLTEIFGYTEVSRNDQEAIFQSIKGEAFGEIVVKYLDGPTEKPGRGSIHHLAIRVKNDAELAYWEEQVKQRGFHSSGIIDRFYFKSLYFRESNGILFEIATDGPGFTVDGDVEHLGEKLDLPPFLEDQRAEIEANLAPIEEK
protein production: not failed

PEKLPYLVELSPDGSDSRDKPKLYRLQLSVTEVGTEKFDDNSIQLFGPGIQPHHCDLTNMDGVVTVTPRSMDAETYVDGQRISETTMLQSGMRLQFGTSHVFKFVDP
protein production: not failed

MKKILGTLLAVLFSFMAINDSAAQNTVLRFNKDGKFKIVQFTDVHFKYGNPASDVALERIGEVLDAEHPDLVIFTGDVVYSSPADKGMLQVLGQVERRHLPFVVTFGNHDNEQGKTRAELYDLIRGVAGNLLPDRGASPSPDYILTMKSSADASKDAALLYCMDSHSYSSLKDVDGYAWLTFGQVSWYRAQSAAYTARNGGKPYPALAFFHIPLPEYNEAAANENAILRGTRMEKACAPQLNTGMFAAMKEAGDVMGVFVGHDHDNDYAVMWKNILLAYGRFTGGNTEYNHLPNGARVIVLNEGTRTFETWIRQKGGVVDSTSYPSDYVKDDWRKR
protein production: failed

LEKNDLVYMQRAFELNDKVAKDIMIDRTQLVVIDITSTVKEALNVYLQERFSRLPVVADNDKDKVLGYVYNYDLTRQQQVDSSVRVDKLIRDISTTPETTPITQVLQQMIKKRTPIVVVVDEYGGTSGIITDKDIYEEL
protein production: failed

MGVLWNSIQSVLVVVLIMILGFVLRRAGWFDDKFAGTISKFIKNIALPASIFVSVLSRLTRGQLGSFAGYLAYAFLAVIIGYLIAFALVKVMRVRPGRKGIFINAIVNANTIFIGLPLNIALFGDKSMTYFLVYYIVNTVSTWAFGVFLISNDDPTKSKEKTHNKIDWKKVIPMPLVGFLVALIFLLLNIPIMKVSFVSSTLTYVGNLVTPLSLIYIGIVLADAGLKSIRFDRDTVVALVGRFILSPIVMILVLMVAGNLGASFPTLASQTLIVQSATPMLAVLPILANEAHGDVEYATNIVTTSTVLFIVVVPVLMTLIQYI
protein production: failed
